Source: patent publication US10183971B2, “SAA-domain-specific antibodies and peptide antagonists and use thereof to treat inflammatory diseases” (The Feinstein Institute For Medical Research, priority 2013, dated 2019)
Read-outs that look alike come from different tables or passages of the source.

Tests used:
HMGB1 release = HMGB1 release in vitro by inflammatory mediators (data not shown); format: cell-based
Balb/C mice = format: in vivo; conditions: LPS 5 mg/kg i.p. in combination with SAA 0.8 mg/kg
human monocytes = assay: HMGB1 release in human monocyte cultures (Western blots); format: cell-based; conditions: 1-10 μg/ml, 16 h
Experimental: (§1) FIG. 4A-4C. […] A, Amino acid sequence of human and murine SAAs (SEQ ID NOS:19-23, top to bottom). B, Western blots of human SAA and SAA1. Note that the anti-HMGB1 IgGs paradoxically cross-reacted with huSAA, but not huSAA1. […] Murine macrophages and human monocytes were stimulated with huSAA or huSAA1 for 16 h, and extracellular HMGB 1 levels were determined by Western blots.
(§2) Overall, there is a >95-98% amino acid sequence homology between members of the human or murine SAA families, and a >75% identity across human and murine families (FIG. 4A), making it seemingly difficult to distinguish between different SAA members by immunoassays. Indeed, the polyclonal antibodies raised against human SAA cross-reacted with both human SAA and SAA1 on Western blots (FIG. 4B, bottom panel). Intriguingly, our rabbit anti-HMGB1 IgGs “specifically” recognized human SAA, but not SAA1, on Western blots (FIG. 4B), implicating a possibility of selectively immunodetecting human SAA with appropriate antibodies.

murine macrophages = assay: HMGB1 release in murine macrophage cultures (Western blots); format: cell-based; conditions: 1-10 μg/ml, 16 h
Experimental: as §1, §2

B1: KC: inflammatory mediator, sepsis surrogate marker (protein, UniProt P12850 25-96, looked up)
Growth-regulated alpha protein: APIANELRCQCLQTMAGIHLKNIQSLKVLPSGPHCTQTEVIATLKNGREACLDPEAPLVQKIVQKMLKGVPK
B1 was tested. Which “induction of HMGB1 release in vitro” value (HMGB1 release) did it give?
Its value is “unable to induce HMGB1 release”.

B2: human SAA: human serum amyloid A, recombinant protein (Cat. No. 300-13, PeproTech) (protein)
chain: RSFFSFLGEAFDGARDMWRAYSDMREANYIGSDKYFHARGNYDAAKRGPGGAWAAEVITDARENIQRFFGHGAEDSLADQAANEWGRSGKDPNHFRPAGLPEKY
B2 was tested. Which “effect on LPS-induced animal lethality” value (Balb/C mice; listed as Recombinant SAA protein) did it give?
The value was “dramatically exacerbated”.

What about the “effect on LPS-induced animal lethality” value (Balb/C mice; listed as SAA) of the same molecule?
The value was “exacerbated LPS-induced animal lethality”.

What about the “induction of HMGB1 release” value (human monocytes) of the same molecule?
Its value is “effectively induced HMGB1 release”.

What about the “induction of HMGB1 release” value (human monocytes; listed as HuSAA) of the same molecule?
Its value is “induced HMGB1 release”.

And the “induction of HMGB1 release” value (murine macrophages)?
Its value is “effectively induced HMGB1 release”.

And the “induction of HMGB1 release” value (murine macrophages; listed as HuSAA)?
Its value is “induced HMGB1 release”.

B3: human SAA1: human SAA1 (Cat. No. 300-53, PeproTech) (protein)
chain: B2 chain
How did the “induction of HMGB1 release” value (human monocytes) turn out when B3 was run?
Its value is “barely triggered HMGB1 release”.

And the “induction of HMGB1 release” value (murine macrophages)?
Its value is “barely triggered HMGB1 release”.
